Results on 5 molecules are retold here after PMC12305242, “Native Top–Down Analysis of Membrane Protein Complexes Directly From In Vitro and Native Membranes” (Molecular & Cellular Proteomics : MCP, 2025).

Data set [1] concerns the target T1, dihydrolipoyl dehydrogenase (DLDH) (Escherichia coli, UniProt P0A9P0).
T1 construct: gene lpdA; endogenous, untagged, ejected from native E. coli BL21 membrane vesicles
T1 sequence (P0A9P0 2-474): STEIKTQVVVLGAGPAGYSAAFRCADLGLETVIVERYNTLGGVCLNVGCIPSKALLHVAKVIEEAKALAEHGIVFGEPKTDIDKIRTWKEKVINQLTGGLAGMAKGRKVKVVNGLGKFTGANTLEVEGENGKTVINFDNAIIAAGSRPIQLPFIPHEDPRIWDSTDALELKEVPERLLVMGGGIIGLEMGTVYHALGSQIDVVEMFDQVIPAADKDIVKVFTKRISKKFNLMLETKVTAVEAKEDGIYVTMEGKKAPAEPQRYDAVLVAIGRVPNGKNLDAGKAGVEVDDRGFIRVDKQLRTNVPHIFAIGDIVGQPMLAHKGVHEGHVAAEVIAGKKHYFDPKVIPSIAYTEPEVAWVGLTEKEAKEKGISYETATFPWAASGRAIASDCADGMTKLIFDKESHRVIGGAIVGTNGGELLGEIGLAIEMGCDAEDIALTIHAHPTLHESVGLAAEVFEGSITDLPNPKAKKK
The data set can be described thus: native MS complex-up (HCD), mass shift of ejected monomer. As to conditions: endogenous ligand, native E. coli membrane vesicles; ligand identified by added mass and database search. The format is binding.

In data set [2] the target is T2, β-barrel–assembly machinery (BAM) complex (Escherichia coli, UniProt P0A940).
T2 construct: gene bamA; endogenous, untagged heteropentamer BAM-ABCDE, lipidated proteoforms, about 199 kDa, ejected from native E. coli BL21 membrane vesicles; with Outer membrane protein assembly factor BamB; Outer membrane protein assembly factor BamC; Outer membrane protein assembly factor BamD; Outer membrane protein assembly factor BamE
The data set can be described thus: native MS of membrane vesicles, complex-up (HCD) of bound species. Format: binding. The settings on record: 100 uM MRL-494, 1 h on ice, native E. coli membrane vesicles; bound to the complex, subunit not resolved.

Data set [3] concerns the molecule itself. The data set can be described thus: native MS; purified protein reconstituted into proteoliposomes (E. coli Polar Lipid Extract, 200 mM NH4Ac), 0.1% (v/v) 3-nitrobenzyl alcohol as supercharger, ejected by in-source activation; protein 2 to 10 uM; Q Exactive UHMR.
Data set [4] concerns the molecule itself. Put plainly: native MS; endogenous complexes ejected from E. coli BL21 native membrane vesicles (500 mM NH4Ac, 300 ug/ml protein, 5% (v/v) glycerol as supercharger), in-source activation; quadrupole isolation and complex-up analysis by HCD/CID; no detergent.
Data set [5] addresses T3, AqpZ, P60844.
T3 chain: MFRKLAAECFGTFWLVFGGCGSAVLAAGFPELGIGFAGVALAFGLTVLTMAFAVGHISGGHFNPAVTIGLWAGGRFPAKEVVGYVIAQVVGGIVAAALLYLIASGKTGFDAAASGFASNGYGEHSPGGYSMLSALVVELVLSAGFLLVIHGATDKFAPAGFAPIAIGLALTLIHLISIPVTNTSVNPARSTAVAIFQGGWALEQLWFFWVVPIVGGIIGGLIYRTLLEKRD
The data set can be described thus: native MS; purified protein reconstituted into proteoliposomes (E. coli Polar Lipid Extract, 200 mM NH4Ac), 0.1% (v/v) 3-nitrobenzyl alcohol as supercharger, ejected by in-source activation; protein 2 to 10 uM; Q Exactive UHMR. As to conditions: remark: other sources report otherwise.

Take `Cc1cc2nc3c(=O)[nH]c(=O)nc-3n(C[C@H](O)[C@H](O)[C@H](O)COP(=O)(O)OP(=O)(O)OC[C@H]3O[C@@H](n4cnc5c(N)ncnc54)[C@H](O)[C@@H]3O)c2cc1C` [flavin adenine dinucleotide]: in data set [1], the “native MS complex-up (HCD), mass shift of ejected monomer” value is recorded as “identified the ligand as flavin adenine dinucleotide, an endogenous cofactor of DLDH”.
For the molecule `NC(N)=NC(=O)CC(Nc1nc(N=C(N)N)nc(NC2CCC(NC(=O)Cn3nnc(-c4ccc(F)cc4)n3)CC2)n1)C1CC1` (centres unmarked) [MRL-494], in data set [2], the “native MS of membrane vesicles, complex-up (HCD) of bound species” value is recorded as “The results provide direct evidence for MRL-494 BAM complex interaction”.

B1: semiSWEET (natural protein)
chain: MALIERIGKALEPLMLVMGLISPLATMPQLYKLYVSHSEHALGLSLTTWLLYSFIALLWTIYGIYHKNPTIWVGNCLGFLMYVAMVVGIIAHTGGTY
As to B1, in data set [3], the stoichiometry N (in general, a count of units in the complex or per binding partner) amounted to 2.

B2: dihydrolipoyl dehydrogenase (enzyme, UniProt P0A9P0 1-474, looked up)
chain: MSTEIKTQVVVLGAGPAGYSAAFRCADLGLETVIVERYNTLGGVCLNVGCIPSKALLHVAKVIEEAKALAEHGIVFGEPKTDIDKIRTWKEKVINQLTGGLAGMAKGRKVKVVNGLGKFTGANTLEVEGENGKTVINFDNAIIAAGSRPIQLPFIPHEDPRIWDSTDALELKEVPERLLVMGGGIIGLEMGTVYHALGSQIDVVEMFDQVIPAADKDIVKVFTKRISKKFNLMLETKVTAVEAKEDGIYVTMEGKKAPAEPQRYDAVLVAIGRVPNGKNLDAGKAGVEVDDRGFIRVDKQLRTNVPHIFAIGDIVGQPMLAHKGVHEGHVAAEVIAGKKHYFDPKVIPSIAYTEPEVAWVGLTEKEAKEKGISYETATFPWAASGRAIASDCADGMTKLIFDKESHRVIGGAIVGTNGGELLGEIGLAIEMGCDAEDIALTIHAHPTLHESVGLAAEVFEGSITDLPNPKAKKK
notes: dihydrolipoyl dehydrogenase (DLDH, gene lpdA), E. coli BL21, endogenous peripheral membrane protein; also called DLDH; lpdA; source: endogenous, E. coli BL21 membrane vesicles (N2 cavitation)
B2: the “stoichiometry N” value in data set [4] was found to be 2.

B3: AqpZ, P60844 1-231 (natural protein)
chain: MFRKLAAECFGTFWLVFGGCGSAVLAAGFPELGIGFAGVALAFGLTVLTMAFAVGHISGGHFNPAVTIGLWAGGRFPAKEVVGYVIAQVVGGIVAAALLYLIASGKTGFDAAASGFASNGYGEHSPGGYSMLSALVVELVLSAGFLLVIHGATDKFAPAGFAPIAIGLALTLIHLISIPVTNTSVNPARSTAVAIFQGGWALEQLWFFWVVPIVGGIIGGLIYRTLLEKRD
With B3, the stoichiometry N in data set [5] worked out at 4.
